Assay results from publication PMC2871135, “Engineering Cofactor Preference of Ketone Reducing Biocatalysts: A Mutagenesis Study on a γ-Diketone Reductase from the Yeast Saccharomyces cerevisiae Serving as an Example” (International Journal of Molecular Sciences, 2010).
Numbering of substitutions follows the chain as printed. Numbers in names are those of the source.

B1: Gre2p (Saccharomyces cerevisiae S288C) (protein)
chain: MSVFVSGANGFIAQHIVDLLLKEDYKVIGSARSQEKAENLTEAFGNNPKFSMEVVPDISKLDAFDHVFQKHGKDIKIVLHTASPFCFDITDSERDLLIPAVNGVKGILHSIKKYAADSVERVVLTSSYAAVFDMAKENDKSLTFNEESWNPATWESCQSDPVNAYCGSKKFAEKAAWEFLEENRDSVKFELTAVNPVYVFGPQMFDKDVKKHLNTSCELVNSLMHLSPEDKIPELFGGYIDVRDVAKAHLVAFQKRETIGQRLIVSEARFTMQDVLDILNEDFPVLKGNIPVGKPGSGATHNTLGATLDNKKSKKLLGFKFRNLKETIDDTASQILKFEGRI
notes: GRE2 subcloned from p423-GPD-YOL151w into pRSET B, expressed in E. coli BL21(DE3) pLysS
B2: Gre2p (Saccharomyces cerevisiae S288C; N9E) (protein)
chain: B1 chain with N9E
notes: as for B1

Assays:
[1] = substrate: NC(=O)C1=CN([C@@H]2O[C@H](COP(=O)(O)OP(=O)(O)OC[C@H]3O[C@@H](n4cnc5c(N)ncnc54)[C@H](OP(=O)(O)O)[C@@H]3O)[C@@H](O)[C@H]2O)C=CC1; assay: cells, lysate or membranes; assay type: biochemical, Saccharomyces cerevisiae; conditions: 10 mM 2,5-hexanedione as co-substrate, sodium phosphate pH 7.0, 30 °C, cofactor varied 0.1-4 mM, enzyme enriched from E. coli extract, not homogeneous
[2] = substrate: NC(=O)C1=CN([C@@H]2O[C@H](COP(=O)(O)OP(=O)(O)OC[C@H]3O[C@@H](n4cnc5c(N)ncnc54)[C@H](O)[C@@H]3O)[C@@H](O)[C@H]2O)C=CC1; assay: cells, lysate or membranes; assay type: biochemical, Saccharomyces cerevisiae; conditions: 10 mM 2,5-hexanedione as co-substrate, sodium phosphate pH 7.0, 30 °C, cofactor varied 0.1-4 mM, enzyme enriched from E. coli extract, not homogeneous

Protein | Km [1] [µM] | Vmax [1] [µmol/min/mg] | Km [2] [µM] | Vmax [2] [µmol/min/mg]
B1 | 38 | 0.288 | 1450 | 0.081
B2 | 1520 | 0.272 | 960 | 0.147
